Test results as given in patent US7657380.
Where a chain is given by its changes, count along the chain named.

T1: human CD30 (commercial, conjugated to digoxigenin) (human, UniProt P28908 19-379, limits assumed, conjugated to digoxigenin (DIG))
T1 sequence (looked up): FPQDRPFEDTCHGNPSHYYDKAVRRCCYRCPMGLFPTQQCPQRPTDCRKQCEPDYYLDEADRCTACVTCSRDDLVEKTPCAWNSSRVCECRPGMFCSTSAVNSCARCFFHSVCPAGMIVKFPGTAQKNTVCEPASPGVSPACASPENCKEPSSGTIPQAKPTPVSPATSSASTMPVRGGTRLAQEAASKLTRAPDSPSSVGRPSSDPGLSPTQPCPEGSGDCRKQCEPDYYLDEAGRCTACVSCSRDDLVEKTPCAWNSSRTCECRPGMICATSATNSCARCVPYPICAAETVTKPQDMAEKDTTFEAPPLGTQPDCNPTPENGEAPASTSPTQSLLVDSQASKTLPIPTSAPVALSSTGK

T2: CD30 fused to the Fc region of IgG1 (R&D Systems) (UniProt P28908 19-379)
T2 sequence (looked up): T1 sequence (looked up)

B1: AC10 H0/L1 full length antibody (antibody, V domains shown)
VH: QIQLQQSGPEVVKPGASVKISCKASGYTFTDYYITWVKQKPGQGLEWIGWIYPGSGNTKYNEKFKGKATLTVDTSSSTAFMQLSSLTSEDTAVYFCANYGNYWFAYWGQGTQVTVSA
VL: DIVLTQSPATLSLSPGERATLSCRASQSVDFDGDSYMNWYQQKPGQPPKVLIYAASNLESGIPARFSGSGSGTDFTLTISSLQPEDFATYYCQQSNEDPWTFGGGTKVEIK
B2: AC10 H2/L2 full length antibody (antibody, V domains shown)
VH: QIQLVESGGGLVKPGGSLRLSCAASGYTFTDYYITWVRQAPGQGLEWMGWIYPGSGNTKYNEKFQGRVTMTVDTSTSTAYMELSSLRSEDTAVYFCANYGNYWFAYWGQGTLVTVSS
VL: B1 VL with A9S, T10S, L13A, P15V, E17D, A19V, L21I, S22T
B3: AC10 H0/L3 full length antibody (antibody, V domains shown)
VH: B1 VH
VL: DIVLTQSPDSLAVSLGERATINCKASQSVDFDGDSYMNWYQQKPGQPPKVLIYAASNLESGIPARFSGSGSGTDFTLTINSLEAEDAATYYCQQSNEDPWTFGGGTKVEIK
B4: C225 L2/H3 Fab (Fab, V domains shown)
VH: QVQLQQSGPGLVKPSQTLSLTCTVSGFSLTNYGVHWVRQAPGKGLEWLGVIWSGGNTDYNTSLKSRLTISKDNSKSQVVLQMNSLRAEDTAVYYCARALTYYDYEFAYWGQGTLVTVSS
VL: DILLTQSPATLSLSPGERVTLSCRASQSIGTNIHWYQQKPDQSPKLLIKYASESISGIPSRFSGSGSGTDFTLTISSLQPEDFADYYCQQNNNWPTTFGAGTKLEIK
B5: C225 L2/H4 Fab (Fab, V domains shown)
VH: B4 VH with Q81T, N83T, S84N, L85M, R86D, A87P, E88V, V92T
VL: B4 VL
B6: C225 L3/H4 full length antibody (antibody, IgG1, V domains shown)
VH: B4 VH with Q81T, N83T, S84N, L85M, R86D, A87P, E88V, V92T
VL: B4 VL with A9S, T10S, L13A, P15V, E17D, L21I, S22T, P80A, F83V, D85V
B7: C225 L0/H3 full length antibody (antibody, IgG1, V domains shown)
VH: B4 VH
VL: not shown
B8: C225 L3/H5 full length antibody (antibody, IgG1, V domains shown)
VH: B4 VH with S62P, K64T, S70N
VL: B4 VL with A9S, T10S, L13A, P15V, E17D, L21I, S22T, P80A, F83V, D85V
B9: C225 L4/H5 full length antibody (antibody, IgG1, V domains shown)
VH: B4 VH with S62P, K64T, S70N
VL: DILLTQSPAFLSVTPGEKVTITCRASQSIGTNIHWYQQKPDQSPKLLIKYASESISGIPSRFSGSGSGTDFTLTINSLEAEDAATYYCQQNNNWPTTFGAGTKLEIK
B10: C225 L4/H7 full length antibody (antibody, IgG1, V domains shown)
VH: B4 VH with A40P, L48I, L67V, V79S, Q81K, M82L, N83S, L85V, R86T, E88A
VL: B9 VL
B11: C225 L4/H4 full length antibody (antibody, IgG1, V domains shown)
VH: B4 VH with Q81T, N83T, S84N, L85M, R86D, A87P, E88V, V92T
VL: B9 VL
B12: C225 L3/H8 full length antibody (antibody, IgG1, V domains shown)
VH: QVQLVESGGGLVQPGRSLRLSCAVSGFSLTNYGVHWVRQAPGKGLEWVSVIWSGGNTDYNTSVKGRFTISKDNSKSTVYLQMNSLRAEDTAVYYCARALTYYDYEFAYWGQGTLVTVSS
VL: B4 VL with A9S, T10S, L13A, P15V, E17D, L21I, S22T, P80A, F83V, D85V
B13: C225 L4/H6 full length antibody (antibody, IgG1, V domains shown)
VH: B4 VH with L48V, L63V, S65G, L67F, V79Y
VL: B9 VL
B14: C225 L3/H6 full length antibody (antibody, IgG1, V domains shown)
VH: B4 VH with L48V, L63V, S65G, L67F, V79Y
VL: B4 VL with A9S, T10S, L13A, P15V, E17D, L21I, S22T, P80A, F83V, D85V
B15: C225 L2/H8 full length antibody (antibody, IgG1, V domains shown)
VH: B12 VH
VL: B4 VL
B16: C225 L3/H7 full length antibody (antibody, IgG1, V domains shown)
VH: B4 VH with A40P, L48I, L67V, V79S, Q81K, M82L, N83S, L85V, R86T, E88A
VL: B4 VL with A9S, T10S, L13A, P15V, E17D, L21I, S22T, P80A, F83V, D85V
B17: C225 L3/H3 full length antibody (antibody, IgG1, V domains shown)
VH: B4 VH
VL: B4 VL with A9S, T10S, L13A, P15V, E17D, L21I, S22T, P80A, F83V, D85V
B18: C225 L4/H3 full length antibody (antibody, IgG1, V domains shown)
VH: B4 VH
VL: B9 VL
B19: C225 L0/H6 full length antibody (antibody, IgG1, V domains shown)
VH: B4 VH with L48V, L63V, S65G, L67F, V79Y
VL: not shown
B20: C225 L0/H7 full length antibody (antibody, IgG1, V domains shown)
VH: B4 VH with A40P, L48I, L67V, V79S, Q81K, M82L, N83S, L85V, R86T, E88A
VL: not shown
B21: C225 L2/H5 full length antibody (antibody, IgG1, V domains shown)
VH: B4 VH with S62P, K64T, S70N
VL: B4 VL
B22: C225 L0/H4 full length antibody (antibody, IgG1, V domains shown)
VH: B4 VH with Q81T, N83T, S84N, L85M, R86D, A87P, E88V, V92T
VL: not shown
B23: C225 L2/H6 full length antibody (antibody, IgG1, V domains shown)
VH: B4 VH with L48V, L63V, S65G, L67F, V79Y
VL: B4 VL
B24: C225 L0/H5 full length antibody (antibody, IgG1, V domains shown)
VH: B4 VH with S62P, K64T, S70N
VL: not shown
B25: C225 L2/H7 full length antibody (antibody, IgG1, V domains shown)
VH: B4 VH with A40P, L48I, L67V, V79S, Q81K, M82L, N83S, L85V, R86T, E88A
VL: B4 VL
B26: C225 L0/H8 full length antibody (antibody, IgG1, V domains shown)
VH: B12 VH
VL: not shown
B27: C225 L4/H8 full length antibody (antibody, IgG1, V domains shown)
VH: B12 VH
VL: B9 VL

These binders were tested against T1, human CD30 (commercial, conjugated to …) (assay: AlphaScreen competition vs biotin-WT AC10).

| Binder | Fold IC50 vs WT [fold] | IC50 [nM] |
| --- | --- | --- |
| B1 | 0.61 | 5.19 |
| B2 | 0.06 | 49.2 |
| B3 | 0.69 | 4.61 |

The binders below were run against T3, EGFR extracellular domain (R&D Systems) (UniProt P00533 25-645, limits assumed) (assay: SPR, Fab over EGFR ECD on CM5 chip).

| Binder | Kd [nM] | koff [s⁻¹] | kon [M⁻¹ s⁻¹] |
| --- | --- | --- | --- |
| B4 | 192 | 0.00535 | 27900 |
| B5 | 264 | 0.00473 | 17900 |

Each binder was assayed against T2, CD30 fused to the Fc region of IgG1 … (assay: SPR, CD30-Fc on Protein A chip).

| Binder | Fold KD vs WT [fold] | Kd [nM] |
| --- | --- | --- |
| B1 | 1.03 | 3.29 |
| B2 | 0.57 | 5.95 |
| B3 | 1.13 | 3 |

These binders were tested against T3, EGFR extracellular domain (R&D Systems) (assay: SPR, full length antibody over EGFR chip).

| Binder | binding result |
| --- | --- |
| B6 | binds |
| B7 | binds |
| B8 | binds |
| B9 | binds |
| B10 | binds |
| B11 | binds |
| B12 | binds |
| B13 | binds |
| B14 | binds |
| B15 | binds |
| B16 | binds |
| B17 | binds |
| B18 | binds |
| B19 | binds |
| B20 | binds |
| B21 | binds |
| B22 | binds |
| B23 | binds |
| B24 | binds |
| B25 | binds |
| B26 | binds |
| B27 | binds |
